Source: US20250099634A1, “METHOD OF TREATING CANCER” (Novartis AG, priority 2023, published 2025)
Like-named read-outs stand apart in the source and are kept apart here.

How the values were obtained:
BCRP = BCRP (Homo sapiens, UniProt Q9UNQ0); details: not told
serum inhibin B = details: human, in vivo; cited from earlier work
OAT3 = OAT3 (Homo sapiens, UniProt Q8TCC7)
OATP1B3 = OATP1B3 (Homo sapiens, UniProt Q9NPD5)
[1] = target: P-glycoprotein (efflux transporter) (Homo sapiens, UniProt P08183)
OCT2 = OCT2 (Homo sapiens, UniProt O15244)
OATP1B1 = OATP1B1 (Homo sapiens, UniProt Q9Y6L6)
OAT1 = OAT1 (Homo sapiens, UniProt Q4U2R8)
OCT1 = OCT1 (Homo sapiens, UniProt O15245)
progressive GEP-NETs = details: cited from earlier work
[2] = tested on: somatostatin receptor-positive tumors, including GEP-NETS; details: 1,214 patients; cited from earlier work
[3] = in vivo; cited from earlier work
[4] = All grades, randomized treatment period, Safety Set
[5] = Grade >=3, randomized treatment period, Safety Set
[6] = all grades, randomized treatment period
[7] = most frequent AEs, summary table

Chain of OAT3 (Q8TCC7 whole entry): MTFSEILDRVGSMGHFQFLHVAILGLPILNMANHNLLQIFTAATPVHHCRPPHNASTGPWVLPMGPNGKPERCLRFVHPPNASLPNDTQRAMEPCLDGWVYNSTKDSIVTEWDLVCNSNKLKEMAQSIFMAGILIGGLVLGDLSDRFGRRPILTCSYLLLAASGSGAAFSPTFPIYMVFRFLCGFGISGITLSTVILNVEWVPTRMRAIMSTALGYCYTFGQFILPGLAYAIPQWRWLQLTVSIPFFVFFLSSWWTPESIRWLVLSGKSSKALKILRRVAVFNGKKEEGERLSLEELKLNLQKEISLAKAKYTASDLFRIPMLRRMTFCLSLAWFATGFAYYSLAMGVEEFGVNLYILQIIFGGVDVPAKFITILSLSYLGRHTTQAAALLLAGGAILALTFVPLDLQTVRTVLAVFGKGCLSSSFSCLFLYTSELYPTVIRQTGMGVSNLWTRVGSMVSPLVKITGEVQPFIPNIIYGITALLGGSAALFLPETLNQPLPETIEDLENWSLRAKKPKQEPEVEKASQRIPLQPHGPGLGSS
Chain of OCT2 (O15244 whole entry): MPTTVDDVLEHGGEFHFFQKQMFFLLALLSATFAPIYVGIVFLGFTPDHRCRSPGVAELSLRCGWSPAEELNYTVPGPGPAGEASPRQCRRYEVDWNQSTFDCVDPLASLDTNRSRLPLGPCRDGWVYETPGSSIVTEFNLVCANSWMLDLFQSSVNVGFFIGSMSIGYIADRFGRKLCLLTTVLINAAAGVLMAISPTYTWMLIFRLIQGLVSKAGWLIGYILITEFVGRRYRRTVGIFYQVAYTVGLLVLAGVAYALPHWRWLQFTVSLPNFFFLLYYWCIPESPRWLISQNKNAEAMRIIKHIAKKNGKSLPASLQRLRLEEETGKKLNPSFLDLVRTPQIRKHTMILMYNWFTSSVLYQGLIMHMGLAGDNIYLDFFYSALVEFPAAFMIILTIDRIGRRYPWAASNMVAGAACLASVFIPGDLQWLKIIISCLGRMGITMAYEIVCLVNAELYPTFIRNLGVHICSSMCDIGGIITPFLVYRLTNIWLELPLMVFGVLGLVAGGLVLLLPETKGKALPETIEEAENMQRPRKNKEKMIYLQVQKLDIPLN
Chain of OATP1B1 (Q9Y6L6 whole entry): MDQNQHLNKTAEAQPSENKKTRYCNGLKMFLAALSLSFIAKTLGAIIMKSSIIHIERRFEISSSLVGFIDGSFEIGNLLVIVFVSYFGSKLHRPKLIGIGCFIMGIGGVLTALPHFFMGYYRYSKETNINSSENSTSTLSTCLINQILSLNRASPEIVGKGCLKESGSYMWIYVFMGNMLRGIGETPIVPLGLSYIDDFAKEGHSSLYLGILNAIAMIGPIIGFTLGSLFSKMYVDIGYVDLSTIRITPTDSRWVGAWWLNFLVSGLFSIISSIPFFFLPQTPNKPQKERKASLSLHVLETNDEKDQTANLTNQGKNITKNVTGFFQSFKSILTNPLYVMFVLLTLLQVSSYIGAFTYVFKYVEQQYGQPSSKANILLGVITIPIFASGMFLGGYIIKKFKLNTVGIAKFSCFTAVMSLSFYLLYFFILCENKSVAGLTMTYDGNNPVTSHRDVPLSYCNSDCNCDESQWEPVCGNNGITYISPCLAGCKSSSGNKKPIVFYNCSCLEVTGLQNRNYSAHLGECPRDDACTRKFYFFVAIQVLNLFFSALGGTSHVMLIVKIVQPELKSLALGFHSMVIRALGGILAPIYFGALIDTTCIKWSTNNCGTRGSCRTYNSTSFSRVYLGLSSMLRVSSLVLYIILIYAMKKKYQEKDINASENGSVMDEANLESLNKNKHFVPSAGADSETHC
Chain of BCRP (Q9UNQ0 whole entry): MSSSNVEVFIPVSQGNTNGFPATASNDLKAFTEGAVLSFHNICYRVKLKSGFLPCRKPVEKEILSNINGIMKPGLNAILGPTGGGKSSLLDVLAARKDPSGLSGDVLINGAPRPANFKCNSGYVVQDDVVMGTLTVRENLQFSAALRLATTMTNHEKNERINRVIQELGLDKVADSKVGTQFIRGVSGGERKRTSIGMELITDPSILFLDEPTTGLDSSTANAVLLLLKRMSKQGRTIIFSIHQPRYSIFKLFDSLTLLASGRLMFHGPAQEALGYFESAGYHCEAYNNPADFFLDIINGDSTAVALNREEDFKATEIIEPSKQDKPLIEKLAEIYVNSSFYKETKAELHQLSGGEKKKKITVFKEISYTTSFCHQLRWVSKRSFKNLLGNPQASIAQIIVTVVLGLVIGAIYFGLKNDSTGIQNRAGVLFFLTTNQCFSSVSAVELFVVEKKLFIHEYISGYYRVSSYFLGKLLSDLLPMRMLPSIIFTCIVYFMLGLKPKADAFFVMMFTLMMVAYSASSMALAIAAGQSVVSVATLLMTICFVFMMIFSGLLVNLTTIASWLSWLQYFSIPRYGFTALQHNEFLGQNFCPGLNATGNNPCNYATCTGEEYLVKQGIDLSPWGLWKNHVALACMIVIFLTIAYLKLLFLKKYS
Chain of OAT1 (Q4U2R8 whole entry): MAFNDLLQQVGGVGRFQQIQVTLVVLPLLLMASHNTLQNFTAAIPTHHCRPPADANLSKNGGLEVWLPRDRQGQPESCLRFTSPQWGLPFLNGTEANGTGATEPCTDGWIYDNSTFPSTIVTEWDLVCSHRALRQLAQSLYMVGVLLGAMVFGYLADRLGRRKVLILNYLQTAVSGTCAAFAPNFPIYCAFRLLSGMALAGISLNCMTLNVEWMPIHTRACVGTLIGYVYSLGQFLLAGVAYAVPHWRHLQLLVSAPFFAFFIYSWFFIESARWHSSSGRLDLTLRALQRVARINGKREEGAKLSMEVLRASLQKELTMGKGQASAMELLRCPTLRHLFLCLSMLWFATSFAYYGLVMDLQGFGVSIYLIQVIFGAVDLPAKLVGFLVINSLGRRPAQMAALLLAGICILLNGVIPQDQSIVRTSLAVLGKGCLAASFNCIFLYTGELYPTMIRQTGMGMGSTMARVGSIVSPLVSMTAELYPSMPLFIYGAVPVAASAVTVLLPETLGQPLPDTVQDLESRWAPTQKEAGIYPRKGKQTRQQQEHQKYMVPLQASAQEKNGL
Chain of OCT1 (O15245 whole entry): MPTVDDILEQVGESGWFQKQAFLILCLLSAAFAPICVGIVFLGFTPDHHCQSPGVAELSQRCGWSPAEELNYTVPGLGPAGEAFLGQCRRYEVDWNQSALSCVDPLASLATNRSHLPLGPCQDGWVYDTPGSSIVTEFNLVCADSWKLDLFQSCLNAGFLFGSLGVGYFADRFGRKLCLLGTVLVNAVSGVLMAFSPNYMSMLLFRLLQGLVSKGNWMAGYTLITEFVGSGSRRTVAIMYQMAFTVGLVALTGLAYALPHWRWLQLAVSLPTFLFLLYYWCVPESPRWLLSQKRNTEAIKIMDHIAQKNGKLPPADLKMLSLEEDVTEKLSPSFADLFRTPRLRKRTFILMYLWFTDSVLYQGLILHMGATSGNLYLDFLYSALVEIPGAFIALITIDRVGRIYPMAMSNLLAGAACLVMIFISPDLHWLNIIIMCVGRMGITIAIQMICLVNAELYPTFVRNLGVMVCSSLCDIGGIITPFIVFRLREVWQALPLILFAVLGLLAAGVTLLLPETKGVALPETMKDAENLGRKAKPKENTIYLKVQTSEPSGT
Chain of OATP1B3 (Q9NPD5 whole entry): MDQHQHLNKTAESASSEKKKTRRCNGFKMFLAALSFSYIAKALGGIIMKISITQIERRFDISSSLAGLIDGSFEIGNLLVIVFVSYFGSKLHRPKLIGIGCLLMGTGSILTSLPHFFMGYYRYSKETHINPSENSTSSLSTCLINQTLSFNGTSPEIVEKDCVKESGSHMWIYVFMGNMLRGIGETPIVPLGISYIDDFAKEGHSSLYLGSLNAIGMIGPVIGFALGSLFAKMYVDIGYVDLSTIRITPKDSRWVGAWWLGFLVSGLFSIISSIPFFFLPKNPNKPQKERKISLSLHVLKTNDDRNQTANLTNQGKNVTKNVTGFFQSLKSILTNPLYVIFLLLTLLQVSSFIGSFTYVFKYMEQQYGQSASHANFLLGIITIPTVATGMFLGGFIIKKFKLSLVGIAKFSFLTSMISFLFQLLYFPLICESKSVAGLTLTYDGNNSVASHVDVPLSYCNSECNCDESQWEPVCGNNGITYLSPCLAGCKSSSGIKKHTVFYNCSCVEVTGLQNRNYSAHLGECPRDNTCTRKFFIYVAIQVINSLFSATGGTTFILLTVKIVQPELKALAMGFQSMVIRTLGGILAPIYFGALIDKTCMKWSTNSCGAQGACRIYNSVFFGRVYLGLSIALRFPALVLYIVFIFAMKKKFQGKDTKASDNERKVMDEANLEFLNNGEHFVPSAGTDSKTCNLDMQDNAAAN

## C[C@@H](O)[C@H](NC(=O)[C@@H]1CSSC[C@H](NC(=O)[C@@H](Cc2ccccc2)NC(=O)CN2CCN(CC(=O)[O-])CCN(CC(=O)[O-])CCN(CC(=O)[O-])CC2)C(=O)N[C@@H](Cc2ccc(O)cc2)C(=O)N[C@H](Cc2c[nH]c3ccccc23)C(=O)N[C@@H](CCCCN)C(=O)N[C@@H]([C@@H](C)O)C(=O)N1)C(=O)O.[177Lu+3] [Lutathera, ^177Lu-DOTA^0-Tyr^3-Octreotate]
BCRP
  interaction with BCRP: absence of specific interaction
Serum inhibin B
  mean serum inhibin B levels: significant decrease
Human CYP450 enzymes
  inhibition or induction of human CYP450 enzymes: absence of inhibition or significant induction
OAT3
  interaction with OAT3: absence of specific interaction
OATP1B3
  interaction with OATP1B3: absence of specific interaction
[4]
  AEs leading to discontinuation of Any Treatment (Lutathera, Octreotide): 7 (4.8) n (%)
  AEs leading to discontinuation of Lutathera: 3 (2.0) n (%)
  AEs leading to discontinuation of Octreotide: 5 (3.4) n (%)
  AEs leading to dose interruption of Any Treatment (Lutathera, Octreotide): 23 (15.6) n (%)
  AEs leading to dose interruption of Lutathera: 14 (9.5) n (%)
  AEs leading to dose reduction of Any Treatment (Lutathera, Octreotide): 3 (2.0) n (%)
  AEs leading to dose reduction of Lutathera: 2 (1.4) n (%)
  AEs leading to dose reduction of Octreotide: 1 (0.7) n (%)
  AEs requiring additional therapy: 109 (74.1) n (%)
  Adverse event: Abdominal pain: 26 (17.7) n (%)
  Adverse event: Alanine aminotransferase increased: 16 (10.9) n (%)
  Adverse event: Alopecia: 22 (15.0) n (%)
  Adverse event: Anaemia: 29 (19.7) n (%)
  Adverse event: Aspartate aminotransferase increased: 16 (10.9) n (%)
  Adverse event: Asthenia: 28 (19.0) n (%)
  Adverse event: COVID-19: 28 (19.0) n (%)
  Adverse event: Constipation: 15 (10.2) n (%)
  Adverse event: Diarrhoea: 38 (25.9) n (%)
  Adverse event: Fatigue: 29 (19.7) n (%)
  Adverse event: Gamma-glutamyltransferase increased: 12 (8.2) n (%)
  Adverse event: Headache: 16 (10.9) n (%)
  Adverse event: Hyperglycaemia: 20 (13.6) n (%)
  Adverse event: Lymphocyte count decreased: 16 (10.9) n (%)
  Adverse event: Nausea: 40 (27.2) n (%)
  Adverse event: Oedema peripheral: 17 (11.6) n (%)
  Adverse event: Platelet count decreased: 25 (17.0) n (%)
  Adverse event: Vomiting: 21 (14.3) n (%)
  Adverse event: Weight increased: 18 (12.2) n (%)
  Adverse events: 136 (92.5) n (%)
  Adverse events Related to Amino Acids: 22 (15.0) n (%)
  Adverse events Related to Any Treatment: 101 (68.7) n (%)
  Adverse events Related to Lutathera: 96 (65.3) n (%)
  Adverse events Related to Octreotide: 55 (37.4) n (%)
  Adverse events: Number of subjects with at least one event: 136 (92.5) n (%)
[5]
  AEs leading to discontinuation of Any Treatment (Lutathera, Octreotide): 4 (2.7) n (%)
  AEs leading to discontinuation of Lutathera: 1 (0.7) n (%)
  AEs leading to discontinuation of Octreotide: 3 (2.0) n (%)
  AEs leading to dose interruption of Any Treatment (Lutathera, Octreotide): 7 (4.8) n (%)
  AEs leading to dose interruption of Lutathera: 3 (2.0) n (%)
  AEs leading to dose interruption of Octreotide: 7 (4.8) n (%)
  AEs leading to dose reduction of Any Treatment (Lutathera, Octreotide): 1 (0.7) n (%)
  AEs leading to dose reduction of Lutathera: 1 (0.7) n (%)
  AEs leading to dose reduction of Octreotide: 0 n (%)
  AEs requiring additional therapy: 28 (19.0) n (%)
  Adverse event: Abdominal pain: 4 (2.7) n (%)
  Adverse event: Alanine aminotransferase increased: 1 (0.7) n (%)
  Adverse event: Alopecia: 0 n (%)
  Adverse event: Anaemia: 1 (0.7) n (%)
  Adverse event: Aspartate aminotransferase increased: 1 (0.7) n (%)
  Adverse event: Asthenia: 1 (0.7) n (%)
  Adverse event: COVID-19: 0 n (%)
  Adverse event: Constipation: 1 (0.7) n (%)
  Adverse event: Decreased appetite: 0 n (%)
  Adverse event: Diarrhoea: 2 (1.4) n (%)
  Adverse event: Fatigue: 0 n (%)
  Adverse event: Gamma-glutamyltransferase increased: 7 (4.8) n (%)
  Adverse event: Headache: 0 n (%)
  Adverse event: Hyperglycaemia: 0 n (%)
  Adverse event: Lymphocyte count decreased: 8 (5.4) n (%)
  Adverse event: Nausea: 1 (0.7) n (%)
  Adverse event: Oedema peripheral: 0 n (%)
  Adverse event: Platelet count decreased: 2 (1.4) n (%)
  Adverse event: Vomiting: 1 (0.7) n (%)
  Adverse event: Weight increased: 2 (1.4) n (%)
  Adverse event: White blood cell count decreased: 3 (2.0) n (%)
  Adverse events: 52 (35.4) n (%)
  Adverse events Related to Amino Acids: 1 (0.7) n (%)
  Adverse events Related to Any Treatment: 23 (15.6) n (%)
  Adverse events Related to Lutathera: 22 (15.0) n (%)
  Adverse events Related to Octreotide: 2 (1.4) n (%)
  Adverse events: Number of subjects with at least one event: 52 (35.4) n (%)
[6]
  adverse event by preferred term: abdominal pain: 17.7%
  adverse event by preferred term: diarrhoea: 25.9%
  adverse event by preferred term: nausea: 27.2%
Consistent with established safety profile
  safety findings in NETTER-2: No new or unexpected safety findings
[7]
  Incidence of AEs: Abdominal pain: 26 (17.7) (%)
  Incidence of AEs: Diarrhoea: 38 (25.9) (%)
  Incidence of AEs: Nausea: 40 (27.2) (%)
Randomized treatment period
  AEs leading to discontinuation of Lutathera: 2.0% vs. NA
  AEs leading to discontinuation of Lutathera and/or Octreotide: 4.8%
  AEs leading to discontinuation of Octreotide: 3.4%
  Any AEs: 92.5%
  Grade 3/4 AE: GGT increased: 4.8%
  Grade 3/4 AE: Lymphocyte count decreased: 5.4%
  Grade 3/4 AE: abdominal pain: 2.7%
  Grade 3/4 AE: small intestinal obstruction: 3.4%
  Grade ≥3 AEs: 35.4%
  Grade ≥3 AEs, Treatment-related: 15.6%
[1]
  interaction with P-glycoprotein: absence of specific interaction
OCT2
  interaction with OCT2: absence of specific interaction
OATP1B1
  interaction with OATP1B1: absence of specific interaction
OAT1
  interaction with OAT1: absence of specific interaction
OCT1
  interaction with OCT1: absence of specific interaction
Progressive GEP-NETs; in vivo
  AML and MDS: < 1%
  Hematologic grade 3/4 AEs: 9%
Progressive GEP-NETs; re-treatment, available in 194 patients
  median OS from the start of re-treatment: 26.78 months
Progressive GEP-NETs; re-treatment, available in 347 patients
  DCR: 71%
Progressive GEP-NETs; re-treatment, available in 414 patients
  median PFS: 12.52 months
[2]
  Complete or partial tumor remission: 39%
[3]
  delayed bone marrow toxicity: 1.5 to 2%
